T1: human TIGIT expressed on cells (human, UniProt Q495A1 22-244)
T1 construct: whole, on cells; cDNA encoding human TIGIT in pCHO1.0 for CHO cells; also called CHO-huTIGIT cells
T1 sequence (looked up): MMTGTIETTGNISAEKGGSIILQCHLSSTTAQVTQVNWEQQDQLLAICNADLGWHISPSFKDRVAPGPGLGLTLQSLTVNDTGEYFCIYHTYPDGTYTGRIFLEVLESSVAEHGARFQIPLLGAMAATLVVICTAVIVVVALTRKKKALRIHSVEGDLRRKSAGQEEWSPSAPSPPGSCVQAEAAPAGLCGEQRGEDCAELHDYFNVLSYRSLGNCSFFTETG

T2: human TIGIT-his protein (human, UniProt Q495A1 22-141)
T2 construct: not shown: his tag
T2 sequence: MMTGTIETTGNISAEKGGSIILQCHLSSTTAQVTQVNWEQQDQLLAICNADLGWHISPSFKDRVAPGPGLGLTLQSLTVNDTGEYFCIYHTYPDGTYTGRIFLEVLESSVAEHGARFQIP

T3: human PVRIG expressed on cells (human, UniProt Q6DKI7 41-326)
T3 construct: whole, on cells; cDNA encoding human PVRIG in pCHO1.0 for CHO cells; also called CHO-huPVRIG cells
T3 sequence (looked up): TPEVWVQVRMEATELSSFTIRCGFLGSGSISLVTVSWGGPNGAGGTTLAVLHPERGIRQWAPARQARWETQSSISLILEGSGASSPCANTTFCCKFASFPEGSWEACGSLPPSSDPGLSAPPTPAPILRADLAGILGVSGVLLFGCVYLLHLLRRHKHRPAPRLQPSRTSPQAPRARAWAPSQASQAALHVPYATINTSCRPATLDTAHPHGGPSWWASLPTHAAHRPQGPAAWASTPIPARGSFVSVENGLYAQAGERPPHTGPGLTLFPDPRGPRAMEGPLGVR

T4: mouse PVRIG overexpressed on CHO cells (mouse, UniProt A0A1B0GS01 1-234)
T4 construct: also called CHO-muPVRIG cells
T4 sequence: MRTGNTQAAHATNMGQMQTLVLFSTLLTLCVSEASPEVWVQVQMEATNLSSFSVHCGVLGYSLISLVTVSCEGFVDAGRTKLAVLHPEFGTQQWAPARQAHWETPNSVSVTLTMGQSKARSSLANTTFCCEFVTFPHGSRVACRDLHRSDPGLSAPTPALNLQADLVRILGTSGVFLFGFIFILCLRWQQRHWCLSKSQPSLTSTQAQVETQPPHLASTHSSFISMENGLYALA

T5: cynomolgus PVRIG overexpressed on CHO cells (cynomolgus, UniProt A0A2K5WVV8 1-322)
T5 construct: whole, on cells; also called CHO-cynoPVRIG cells
T5 sequence: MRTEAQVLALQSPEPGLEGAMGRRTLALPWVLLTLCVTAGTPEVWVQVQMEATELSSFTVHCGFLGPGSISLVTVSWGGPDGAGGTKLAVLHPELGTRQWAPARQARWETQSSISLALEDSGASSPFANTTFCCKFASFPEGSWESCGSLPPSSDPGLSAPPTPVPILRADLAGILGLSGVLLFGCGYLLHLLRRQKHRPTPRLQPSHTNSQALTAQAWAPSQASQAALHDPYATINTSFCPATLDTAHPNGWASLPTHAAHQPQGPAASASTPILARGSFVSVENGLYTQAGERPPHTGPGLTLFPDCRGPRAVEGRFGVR

T6: human PVRIG protein with mouse IgG2a Fc tag (human; mouse, UniProt Q6DKI7 41-171, limits assumed)
T6 construct: Whole entry named; not shown: mouse IgG2a Fc tag
T6 sequence (looked up): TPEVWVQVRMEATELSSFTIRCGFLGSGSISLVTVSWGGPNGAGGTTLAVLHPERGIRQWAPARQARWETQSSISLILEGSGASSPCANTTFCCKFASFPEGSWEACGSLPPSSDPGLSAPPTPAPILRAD


How the values were obtained:
[1] = target: T7, cynomolgus TIGIT overexpressed on CHO cells (cynomolgus, UniProt A0A7N9I9V4 89-312); assay: flow cytometry on CHO cells overexpressing cynomolgus TIGIT, median fluorescence intensity PE-A; unit from the concentration axis
T7 construct: whole, on cells; also called CHO-cynoTIGIT cells
Description: (§1) Specifically, CHO cells overexpressing human TIGIT (CHO-huTIGIT cells), CHO cells overexpressing cynomolgus TIGIT (CHO-cynoTIGIT cells) and CHO cells overexpressing mouse TIGIT (CHO-muTIGIT cells) were generated by transfection of the pCHO1.0 vector (purchased from Invitrogen) with cDNA encoding human TIGIT, cynomolgus TIGIT and mouse TIGIT cloned into the multiple cloning site (MCS), respectively, followed by pressure screening. The overexpressing cells were expanded and adjusted to an appropriate cell density, and added to a 96-well flow cytometry plate. After centrifugation, the cells were added with a gradiently diluted sample to be tested, and incubated at 4° C. for 30 minutes. The cells were washed twice with PBS, and added with a fluorescent secondary antibody correspondingly diluted to an appropriate concentration, then incubated at 4° C. for 30 minutes, and washed twice with PBS. Cells were resuspended with PBS, and detected on a CytoFlex flow cytometer, and the corresponding MFI was calculated. Graphpad software was used for graphical analysis to obtain EC₅₀ values.

[2] = target: T1, human TIGIT expressed on cells; assay: flow cytometry on CHO cells overexpressing human TIGIT, median fluorescence intensity PE-A; unit from the concentration axis
Description: as §1

[3] = target: T7, cynomolgus TIGIT overexpressed on CHO …; assay: flow cytometry, CHO-cynoTIGIT cells
Description: as §1

[4] = target: T1, human TIGIT expressed on cells; assay: flow cytometry, CHO-huTIGIT cells
Description: as §1

[5] = target: T1, human TIGIT expressed on cells; assay: flow cytometry on activated human primary T cells (TIGIT), readout positive cell (%); unit from the concentration axis
Description: The binding activity of the anti-TIGIT antibody of the present invention to TIGIT on the surface of activated T cells was detected based on the flow cytometry detection method.
Specifically, human PBMC were sorted according to the experimental protocol provided by […] Company (stemcell, Cat. No.: #17951C) to obtain human total T cells. […] The activated T cells were adjusted to an appropriate cell density and added to a 96-well flow cytometry plate. After centrifugation, the gradiently diluted sample to be tested was added, and incubated at 4° C. for 30 minutes. Washing was carried out twice with PBS, and a fluorescent secondary antibody diluted to an appropriate concentration was added, incubated at 4° C. for 30 minutes, and washed twice with PBS. […]

[6] = target: T1, human TIGIT expressed on cells; assay: flow cytometry, competition with human CD155-mouse IgG2a Fc (2 ug/mL) on CHO-huTIGIT cells
Description: (§2) Specifically, the CHO-huTIGIT cells were expanded and adjusted to a cell density of 2×10⁶ cells/mL, added to a 96-well flow plate at 100 μL/well, and centrifuged for later use. The purified monoclonal antibodies were diluted 3-fold with PBS starting at 400 nM for a total of 12 concentration gradients. The diluted sample was added at 60 μL/well to the cells-carrying 96-well flow plate, and incubated at 4° C. for 30 minutes. […] APC-conjugated goat anti-mouse IgG antibody diluted 100-fold with PBS was added at 100 μL/well, incubated at 4° C. for 30 minutes, and washed twice with PBS. Cells were resuspended with PBS at 100 μL/well, and detected on a CytoFlex flow cytometer, and the corresponding MFI was calculated.

[7] = target: T1, human TIGIT expressed on cells; assay: flow cytometry blocking assay: binding of human CD155 protein with mouse IgG2a Fc tag to CHO cells overexpressing human TIGIT, median fluorescence intensity APC-A; unit from the concentration axis
Description: as §2

human TIGIT-his protein = target: T2, human TIGIT-his protein; assay: BLI (ForteBio), IgG on AHQ sensor, 100 nM TIGIT-his, monovalent, 1:1 model
Description: (§3) Biofilm layer optical interference technology (ForteBio) was used to determine the binding and dissociation […] values of the anti-TIGIT monoclonal antibodies obtained in Example 1 to human, cynomolgus monkey and mouse TIGIT. Fortebio affinity measurements were performed according to existing methods (Este, P et al., High throughput solution-based measurement of antibody-antigen affinity and epitope binning. Mabs, 2013.5(2): p 270-8).
(§4) The antibody-loaded sensor was incubated in 100 nM TIGIT-his antigen to the plateau phase, and then the sensor was transferred to an analysis buffer and incubated for at least 2 minutes for measuring dissociation rate. The kinetic analysis was performed using a 1:1 binding model.

[8] = target: T8, cynomolgus monkey TIGIT-his protein (cynomolgus monkey); assay: as above
T8 construct: also called Cynomolgus TIGIT-his; not shown: his tag
Description: as §3, §4

[9] = target: T3, human PVRIG expressed on cells; assay: flow cytometry, CHO-huPVRIG cells
Description: (§5) The overexpressing cells were expanded and adjusted to an appropriate cell density, and added to a 96-well flow cytometry plate. After centrifugation, the cells were added with a gradiently diluted sample to be tested, and incubated at 4° C. for 30 minutes. The cells were washed twice with PBS, and added with a fluorescent secondary antibody correspondingly diluted to an appropriate concentration, then incubated at 4° C. for 30 minutes, and washed twice with PBS. Cells were resuspended with PBS, and detected on a CytoFlex flow cytometer, and the corresponding MFI was calculated. Graphpad software was used for graphical analysis to obtain EC₅₀ values.

[10] = target: T4, mouse PVRIG overexpressed on CHO cells; assay: flow cytometry, CHO-muPVRIG cells
Description: as §5

[11] = target: T5, cynomolgus PVRIG overexpressed on CHO …; assay: flow cytometry, CHO-cynoPVRIG cells
Description: as §5

[12] = target: T6, human PVRIG protein with mouse IgG2a Fc …; assay: flow cytometry, competition: human PVRIG-mouse IgG2a Fc (1 ug/mL) binding to CHO-huCD112 cells
Description: Specifically, CHO cells overexpressing human CD112 (CHO-huCD112 cells) were generated by transfection of the pCHO1.0 vector (purchased from Invitrogen) with cDNA encoding human CD112 cloned into the multiple cloning site (MCS), respectively, followed by pressure screening. The CHO-huCD112 cells were expanded and adjusted to a cell density of 2×10⁶ cells/mL, added to a 96-well flow plate at 100 μL/well, and centrifuged for later use. The purified monoclonal antibody was gradient diluted with PBS and the diluted sample was added to a blank 96-well flow plate at 60 μL/well. […] The above incubated samples were added at 100 μL/well to the 96-well flow plate containing CHO-huCD112 cells, incubated at 4° C. for 30 min and washed twice with PBS. APC-conjugated goat anti-mouse IgG antibody diluted 100-fold with PBS was added at 100 μL/well, incubated at 4° C. for 30 minutes and washed twice with PBS. Cells were resuspended with PBS at 100 μL/well, and detected on a CytoFlex flow cytometer, and the corresponding MFI was calculated.

[13] = target: Biotin-labeled mouse PVRIG huFc protein (mouse); assay: competition ELISA: biotin mouse PVRIG-huFc binding to coated mouse CD112-his
Description: Specifically, mouse CD112-his protein diluted with 1× coating buffer to a final concentration of 1 μg/mL was added to the ELISA plate at 100 μL/well, covered with the film, and coated overnight at 4° C. The coating solution in the ELISA plate was discarded, and the ELISA plate was washed three times with 1×PBST and was blocked with 5% BSA/PBS at 200 μL/well for 2 hours at room temperature. During the blocking period, the samples to be tested were gradient diluted with 1% BSA/PBS to a final volume of 60 μL/well. […] The blocking solution in the ELISA plate was discarded, and the above sample mixture was added at 100 μL/well and incubated for 2 hours at room temperature. The above co-incubated samples were discarded, the ELISA plate was washed three times with 1×PBST, and SA-HRP diluted with 1% BSA/PBS was added at 100 μL/well and incubated for 1 hour at room temperature. The SA-HRP dilution was discarded, the ELISA plate was washed three times with 1×PBST, ELISA Chromogen Solution was added at 100 μL/well and incubated for 1-3 minutes at room temperature, ELISA stopping solution was added at 50 μL/well and the absorbance values were read at 450 nm.

T7 sequence (A0A7N9I9V4 entry or part of it): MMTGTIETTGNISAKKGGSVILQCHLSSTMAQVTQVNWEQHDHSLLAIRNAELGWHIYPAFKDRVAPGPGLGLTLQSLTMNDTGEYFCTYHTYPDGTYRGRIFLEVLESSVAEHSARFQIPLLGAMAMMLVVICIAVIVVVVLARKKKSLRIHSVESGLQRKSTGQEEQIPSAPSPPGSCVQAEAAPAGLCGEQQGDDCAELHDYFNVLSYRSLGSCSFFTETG
T8 sequence (chain, as listed by the source): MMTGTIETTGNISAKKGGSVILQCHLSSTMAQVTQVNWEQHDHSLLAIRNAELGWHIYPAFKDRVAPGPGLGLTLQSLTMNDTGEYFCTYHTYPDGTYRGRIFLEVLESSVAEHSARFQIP

| EC50 [1] | EC50 [2] | EC50 [3] | EC50 [4] | EC50 [5] | IC50 [6] | IC50 [7] | Kd (human TIGIT-his protein) | Kd [8] | EC50 [9] | EC50 [10] | EC50 [11] | IC50 [12] | IC50 [13] | Binder |
| --- | --- | --- | --- | --- | --- | --- | --- | --- | --- | --- | --- | --- | --- | --- |
| 4.18 nM | 1.34 nM | 4.18 nM | 1.35 nM | 0.274 nM | 0.63 nM | 0.634 nM | 0.87 nM | 3.5 nM |  |  |  |  |  | Tiragolumab (antibody, V domains shown) VH: EVQLQQSGPGLVKPSQTLSLTCAISGDSVSSNSAAWNWIRQSPSRGLEWLGKTYYRFKWYSDYAVSVKGRITINPDTSKNQFSLQLNSVTPEDTAVFYCTRESTTYDLLAGPFDYWGQGTLVTVSS VL: not shown |
|  |  |  |  |  |  |  |  |  | 2.51 nM | 6.47 nM | 1.96 nM | 1.23 nM | 1.57 nM | anti-PVRIG monoclonal antibody ADI-56127-G1 (antibody, human IgG1, V domains shown, Wild-type human IgG1 heavy chain constant region, human kappa light chain constant region; HEK293) VH: QVQLVQSGAEVKKPGSSVKVSCKASGGTESVDAISWVRQAPGQGLEWMGDIIPFFDTDYAQKFQGRVTITADESTSTAYMELSSLRSEDTAVYYCAREGGTSWTHFFDLWGRGTLVTVSS VL: not shown |
|  |  |  |  |  |  |  |  |  | 2.44 nM | 5.38 nM | 1.98 nM | 1.36 nM | 1.78 nM | anti-PVRIG monoclonal antibody ADI-56127-G1LALA (antibody, human IgG1, V domains shown, Human IgG1 heavy chain constant region modified by L234A, L235A; human kappa light chain constant region; HEK293) VH: QVQLVQSGAEVKKPGSSVKVSCKASGGTESVDAISWVRQAPGQGLEWMGDIIPFFDTDYAQKFQGRVTITADESTSTAYMELSSLRSEDTAVYYCAREGGTSWTHFFDLWGRGTLVTVSS VL: not shown |

Source: patent US20250223354A1 (BIOTHEUS, published 2025)
